# Test results as given in article PMC7439480, “Phosphorylation-Dependent Assembly of a 14-3-3 Mediated Signaling Complex during Red Blood Cell Invasion by Plasmodium falciparum Merozoites” (mBio, 2020).
# Non-standard residues stand in square brackets, D forms with d. No end group written: not given here. pS = N[C@@H](COP(=O)(O)O)C(=O)O
# T1: recombinant glutathione S-transferase (GST)-tagged Pf14-3-3I protein (P. falciparum, UniProt C0H4V6 1-262)
# T1 construct: 14-3-3 protein I, P. falciparum, PF3D7_0818200; also called Pf14-3-3I-GST; recombinant Pf14-3-3I; source: recombinant
# T1 sequence: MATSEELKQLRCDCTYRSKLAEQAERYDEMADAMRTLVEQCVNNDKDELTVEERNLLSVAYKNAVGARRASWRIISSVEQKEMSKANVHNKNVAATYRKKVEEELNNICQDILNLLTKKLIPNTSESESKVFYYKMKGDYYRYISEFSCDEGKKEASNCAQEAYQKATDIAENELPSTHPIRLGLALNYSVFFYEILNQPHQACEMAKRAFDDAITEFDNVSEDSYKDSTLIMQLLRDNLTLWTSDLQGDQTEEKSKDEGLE
# B1: 14-3-3 binding peptide AA (ARSHpSYPA) (peptide)
# peptide: ARSH[pS]YPA
# notes: Coupled to agarose beads (Pierce co-IP kit) for the pull-down; also called phosphopeptide AA; source: synthetic peptide
# B2: 14-3-3 binding peptide RA (RLYHpSLPA) (peptide)
# peptide: RLYH[pS]LPA
# notes: Coupled to agarose beads (Pierce co-IP kit) for the pull-down; also called phosphopeptide RA; source: synthetic peptide
# Biological target: T1, recombinant glutathione S-transferase …
# Assay: pull-down; peptides coupled to agarose beads (Pierce co-IP kit) incubated with GST-tagged Pf14-3-3I; eluates blotted with anti-Pf14-3-3I mouse sera; noncoated beads as control
# Details: both partners purified
binder,measurement,value
B1,binding result,binds
B2,binding result,binds
